Data as given in paper PMC7948419, “Endophilin recruitment drives membrane curvature generation through coincidence detection of GPCR loop interactions and negative lipid charge” (The Journal of Biological Chemistry, 2020).

Tests used:
[1] = molecular target: beta1-adrenergic receptor TIL (UniProt P08588); details: cited from earlier work
[2] = molecular target: T1, full-length rat endophilin A1 (C108S, E241C, C294S, C295S), labeled with Alexa 594-maleimide (rat, UniProt O35179 1-352, C108S | E241C | C294S | C295S, Alexa 594-maleimide on the cysteine (E241C)); assay: confocal fluorescence imaging of recruitment to peptide-conjugated GUVs; TIL-Alexa 488 covalently conjugated (cysteine-maleimide) to GUVs of MCC-PE/DOPC/DiD 5:94.5:0.5; Alexa 594-labeled protein added in solution; HEPES buffer (20 mM HEPES, 150 mM NaCl, 1 mM TCEP, pH 7.4); room temperature; details: both partners purified
T1 construct: endophilin A1, rat, full length; The introduction calls endophilin a dimeric protein; also called endophilin-Alexa 594; single cysteine mutant of rat endophilin A1
T1 sequence (O35179 whole entry C108S/E241C/C294S/C295S): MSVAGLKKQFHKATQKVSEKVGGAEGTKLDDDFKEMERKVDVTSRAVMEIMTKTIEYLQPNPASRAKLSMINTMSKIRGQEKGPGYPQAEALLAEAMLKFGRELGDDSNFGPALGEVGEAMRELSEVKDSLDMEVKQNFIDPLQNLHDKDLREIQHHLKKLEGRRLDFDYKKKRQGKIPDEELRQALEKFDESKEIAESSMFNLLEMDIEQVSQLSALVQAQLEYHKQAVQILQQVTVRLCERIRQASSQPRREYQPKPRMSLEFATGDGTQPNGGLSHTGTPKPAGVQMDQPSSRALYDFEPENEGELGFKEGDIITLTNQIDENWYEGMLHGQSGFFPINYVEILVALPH

Chain of endophilin A1 (Q99962 whole entry): as the sequence (O35179 whole entry C108S/E241C/C294S/C295S) above, with S108C, M133I, C241E, A266P, G270S, A286S, S294C, S295C, Q335H counted along it

Row | binding result [2] | Molecule | Kd [1]
1 |  | endophilin A1 (from UniProt Q99962) | 47 nM
2 | binds | third intracellular loop (TIL) of the β1-adrenergic receptor (amino acids 246–325), labeled with Alexa 488 (domain or fragment, UniProt P08588 246-325, looked up, Alexa 488 on the N-terminal amine (30 to 50% labeling); Cys261 coupled to the maleimide lipid MCC-PE in the experiments with TIL-conjugated vesicles, β1-adrenergic receptor, third intracellular loop, amino acids 246–325, cloned from the pcDNA3-Flag beta-1-adrenergic-receptor vector; 80 residues, 8861 Da; Cloned into BamHI/EcoRI of pGEX6p1 and cut with PreScission protease, so a few vector residues may remain at the N-terminus (surmise); also called TIL peptide; TIL-Alexa 488; source: E. coli BL21-CodonPlus (DE3)-RIL, purified (GST trap, …)) RVFREAQKQVKKIDSCERRFLGGPARPPSPSPSPVPAPAPPPGPPRPAAAAATAPLANGRAGKRRPSRLVALREQKALKT | 
